The values below come from patent US20160176924A1, “MODIFIED PEPTIDES AS POTENT INHIBITORS OF THE PSD-95/NMDA RECEPTOR INTERACTION” (priority 2008, published 2016).

The term Kd denotes the free concentration of one partner at which half of the binding sites on the other are occupied at equilibrium, for simple one-to-one binding. A higher Kd goes with a looser complex. Usually Ki stands for the equilibrium dissociation constant of an inhibitor or competing ligand from its target. Read a high Ki as lower affinity.

The target in assay [1] is T1, HIS-PDZ1-2 protein (PSD-95 PDZ1-2 tandem, residues 61-249, with tag …) (human), P78352. Kind of assay: ITC; monomeric IETAV, no linker. Background: In ITC the heat of successive injections is recorded.
Assay [2] has as its target T1, HIS-PDZ1-2 protein (PSD-95 PDZ1-2 …). Kind of assay: FP competition, fluorescent NR2B probe.
Assay [3] deals with T2, HIS-PDZ2 protein (PSD-95 PDZ2, residues 155-249, with tag …) (human), P78352.
T2 chain: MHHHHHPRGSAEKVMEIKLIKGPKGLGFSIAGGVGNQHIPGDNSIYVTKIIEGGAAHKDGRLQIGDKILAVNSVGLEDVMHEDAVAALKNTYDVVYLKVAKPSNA
Description: FP competition, fluorescent NR2B probe.

The target in assay [4] is T3, HIS-PDZ1 protein (PSD-95 PDZ1, residues 61-151, with tag …) (human), P78352. Kind of assay: FP competition, fluorescent NR2B probe.
Assay [5] deals with T3, HIS-PDZ1 protein (PSD-95 PDZ1, residues …). Kind of assay: FP competition, fluorescent NR2B probe; truncation series of NR2B peptide (1).
Assay [6] concerns the target T2, HIS-PDZ2 protein (PSD-95 PDZ2, residues …). The assay is described as above.

IETAV (modifications not checked) [IETAV (82)] showed a Kd in assay [1] of 1.9 µM. Also, the Ki in assay [2] worked out at 2.5 µM; in assay [3] it was 1.7 µM.
As to ESDV (modifications not checked) [ESDV (8)], the Ki in assay [4] worked out at 56 µM; in assay [2] it was 28 µM; in assay [3] it was 28 µM. For the same molecule, the fold increase in Ki in assay [5] worked out at 3.1 fold; in assay [6], 6.8 fold.
